Data published in patent US20140363428A1.

Columns and labels:
human IgE (human) [1] = assay: SPR Biacore T200, 37 C; ratio of KD, pH dependency
human IgE (human) [2] = assay: SPR Biacore T200, 37 C; pH 7.4, […] Ca
human IgE (human) [3] = assay: SPR Biacore T200, 37 C; pH 5.8, 3 microM Ca
human IgE (human) [4] = assay: SPR Biacore T200, 37 C; ratio of KD, pH/Ca dependency
human IgE (human) [5] = assay: SPR Biacore T200, 37 C; pH 5.8, […] Ca

Sequence of human IgE (human) (heavy, as listed by the source, chain 1 of 2, other chains not shown): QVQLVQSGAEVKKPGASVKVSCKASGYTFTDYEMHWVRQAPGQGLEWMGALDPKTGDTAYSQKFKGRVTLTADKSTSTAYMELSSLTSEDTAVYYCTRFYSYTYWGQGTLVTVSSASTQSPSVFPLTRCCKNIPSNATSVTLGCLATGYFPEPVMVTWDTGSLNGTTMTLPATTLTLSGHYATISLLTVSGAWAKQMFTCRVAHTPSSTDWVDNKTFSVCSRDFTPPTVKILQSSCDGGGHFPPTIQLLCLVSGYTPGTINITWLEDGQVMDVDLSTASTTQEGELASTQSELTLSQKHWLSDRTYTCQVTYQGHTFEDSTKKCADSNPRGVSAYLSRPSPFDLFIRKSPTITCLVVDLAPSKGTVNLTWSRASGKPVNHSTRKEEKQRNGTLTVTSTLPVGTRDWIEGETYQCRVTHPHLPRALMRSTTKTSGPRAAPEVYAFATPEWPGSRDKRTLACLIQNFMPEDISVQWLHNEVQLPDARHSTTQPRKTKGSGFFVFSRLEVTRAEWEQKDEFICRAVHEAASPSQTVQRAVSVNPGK

Xolair (omalizumab; Novartis) (antibody)
KD (pH 5.8, 1.2 mM Ca)/KD (pH 7.4, 1.2 mM Ca) (human IgE (human) [1]): 2.3
Kd (human IgE (human) [2]): 4.4 nM
koff (human IgE (human) [2]): 0.011 s⁻¹
kon (human IgE (human) [2]): 2.5e+06 M⁻¹ s⁻¹
Kd (human IgE (human) [3]): 13 nM
koff (human IgE (human) [3]): 0.017 s⁻¹
kon (human IgE (human) [3]): 1.4e+06 M⁻¹ s⁻¹
KD (pH 5.8, 3 microM Ca)/KD (pH 7.4, 1.2 mM Ca) (human IgE (human) [4]): 2.9
Kd (human IgE (human) [5]): 9.9 nM
koff (human IgE (human) [5]): 0.024 s⁻¹
kon (human IgE (human) [5]): 2.4e+06 M⁻¹ s⁻¹
